Experimental data from the supplement of paper PMC10065799, “High-throughput profiling of sequence recognition by tyrosine kinases and SH2 domains using bacterial peptide display” (eLife, 2023).

Key:
SHP2-C SH2 = experiment: SH2 binding enrichment of the phosphorylated peptide, bacterial display (enrichment ratio); higher = better substrate or ligand; peptides without Tyr show the background
c-Src SH2 = experiment: as above
Grb2 SH2 = Grb2 SH2 (UniProt P62993); experiment: as above
Fyn = Fyn (UniProt P06241); experiment: phosphorylation enrichment, bacterial display (enrichment ratio); higher = better substrate or ligand; peptides without Tyr show the background
Jak2 = Jak2 (UniProt O60674); experiment: as above
FGFR1 = FGFR1 (UniProt P11362); experiment: as above
Fer (mouse) = experiment: as above
c-Abl (mouse) = experiment: as above
Hck = Hck (UniProt P08631); experiment: as above
AncSZ = experiment: as above
FGFR3 = FGFR3 (UniProt P22607); experiment: as above
EPHB2 = EPHB2 (UniProt P29323); experiment: as above
c-Src = experiment: as above
MERTK = MERTK (UniProt Q12866); experiment: as above
Fes = Fes (UniProt P07332); experiment: as above
EPHB1 = EPHB1 (UniProt P54762); experiment: as above
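Throughout, for SH2 binding enrichment of the phosphorylated peptide, bacterial display: peptide library displayed on the E. coli surface as eCPX fusions, selected cells deep-sequenced, score is each peptide's frequency after selection divided by its frequency in the input.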
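Throughout, for phosphorylation enrichment, bacterial display: 11-residue human phosphosite peptides and single-mutation variants displayed on the E. coli surface, counted by deep sequencing, each peptide's frequency after selection divided by its frequency in the unselected input library; frequency after pTyr selection over input frequency; kinase dosed for 20-30% of maximal phosphorylation in three min.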

Chain of Jak2 (O60674 whole entry, looked up): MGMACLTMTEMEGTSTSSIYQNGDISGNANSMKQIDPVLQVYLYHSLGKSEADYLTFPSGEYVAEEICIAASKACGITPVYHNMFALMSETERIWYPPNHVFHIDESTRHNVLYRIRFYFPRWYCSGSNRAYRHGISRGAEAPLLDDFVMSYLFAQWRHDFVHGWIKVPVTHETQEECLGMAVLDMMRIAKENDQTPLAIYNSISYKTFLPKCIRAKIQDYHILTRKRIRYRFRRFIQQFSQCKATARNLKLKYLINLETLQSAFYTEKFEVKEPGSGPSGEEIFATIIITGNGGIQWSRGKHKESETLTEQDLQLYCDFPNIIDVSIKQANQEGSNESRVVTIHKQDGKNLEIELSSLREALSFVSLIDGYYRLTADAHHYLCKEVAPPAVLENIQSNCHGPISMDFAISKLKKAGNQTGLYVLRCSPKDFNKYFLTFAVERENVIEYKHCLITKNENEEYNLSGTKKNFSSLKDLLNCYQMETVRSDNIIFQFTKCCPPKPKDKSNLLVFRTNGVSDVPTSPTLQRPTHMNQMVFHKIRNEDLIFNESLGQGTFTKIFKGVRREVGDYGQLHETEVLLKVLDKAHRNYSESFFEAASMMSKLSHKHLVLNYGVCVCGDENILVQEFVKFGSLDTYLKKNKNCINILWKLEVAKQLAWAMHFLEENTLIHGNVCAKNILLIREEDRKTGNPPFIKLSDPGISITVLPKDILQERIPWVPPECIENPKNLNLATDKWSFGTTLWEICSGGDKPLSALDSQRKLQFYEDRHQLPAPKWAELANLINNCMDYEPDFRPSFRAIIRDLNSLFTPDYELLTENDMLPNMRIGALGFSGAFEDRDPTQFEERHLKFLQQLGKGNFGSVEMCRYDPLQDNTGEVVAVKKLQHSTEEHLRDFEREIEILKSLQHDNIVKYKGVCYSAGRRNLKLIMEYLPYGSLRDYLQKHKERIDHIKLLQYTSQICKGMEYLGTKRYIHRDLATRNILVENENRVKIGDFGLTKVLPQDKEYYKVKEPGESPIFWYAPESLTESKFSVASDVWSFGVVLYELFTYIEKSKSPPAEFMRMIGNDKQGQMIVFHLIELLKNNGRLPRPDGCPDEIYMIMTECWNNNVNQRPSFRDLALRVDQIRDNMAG
Chain of EPHB1 (P54762 whole entry, looked up, the tested form may be a part): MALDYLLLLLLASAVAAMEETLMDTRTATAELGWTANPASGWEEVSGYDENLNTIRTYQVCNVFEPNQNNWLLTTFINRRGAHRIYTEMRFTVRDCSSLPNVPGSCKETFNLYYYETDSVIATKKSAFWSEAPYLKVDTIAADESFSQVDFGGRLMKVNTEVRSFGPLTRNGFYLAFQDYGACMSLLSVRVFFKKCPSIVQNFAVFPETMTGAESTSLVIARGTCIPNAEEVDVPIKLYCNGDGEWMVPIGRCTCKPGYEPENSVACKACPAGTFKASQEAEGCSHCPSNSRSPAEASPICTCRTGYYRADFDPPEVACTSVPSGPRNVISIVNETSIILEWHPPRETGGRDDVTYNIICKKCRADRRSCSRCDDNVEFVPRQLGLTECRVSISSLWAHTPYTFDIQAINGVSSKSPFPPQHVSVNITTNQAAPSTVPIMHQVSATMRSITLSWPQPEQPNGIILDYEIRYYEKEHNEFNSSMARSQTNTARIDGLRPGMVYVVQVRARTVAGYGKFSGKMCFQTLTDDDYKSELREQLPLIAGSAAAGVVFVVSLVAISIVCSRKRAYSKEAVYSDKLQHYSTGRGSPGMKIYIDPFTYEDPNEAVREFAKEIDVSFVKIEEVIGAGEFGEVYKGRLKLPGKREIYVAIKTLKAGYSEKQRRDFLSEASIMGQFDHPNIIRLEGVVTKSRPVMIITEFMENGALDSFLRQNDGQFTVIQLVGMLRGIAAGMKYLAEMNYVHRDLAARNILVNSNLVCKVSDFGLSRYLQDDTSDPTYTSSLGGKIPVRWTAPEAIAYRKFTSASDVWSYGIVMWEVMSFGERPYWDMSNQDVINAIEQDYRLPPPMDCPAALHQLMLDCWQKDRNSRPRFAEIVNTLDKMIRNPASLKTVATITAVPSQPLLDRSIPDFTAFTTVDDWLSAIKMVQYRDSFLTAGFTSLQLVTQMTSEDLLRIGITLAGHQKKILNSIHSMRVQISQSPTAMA
Chain of Fes (P07332 whole entry, looked up): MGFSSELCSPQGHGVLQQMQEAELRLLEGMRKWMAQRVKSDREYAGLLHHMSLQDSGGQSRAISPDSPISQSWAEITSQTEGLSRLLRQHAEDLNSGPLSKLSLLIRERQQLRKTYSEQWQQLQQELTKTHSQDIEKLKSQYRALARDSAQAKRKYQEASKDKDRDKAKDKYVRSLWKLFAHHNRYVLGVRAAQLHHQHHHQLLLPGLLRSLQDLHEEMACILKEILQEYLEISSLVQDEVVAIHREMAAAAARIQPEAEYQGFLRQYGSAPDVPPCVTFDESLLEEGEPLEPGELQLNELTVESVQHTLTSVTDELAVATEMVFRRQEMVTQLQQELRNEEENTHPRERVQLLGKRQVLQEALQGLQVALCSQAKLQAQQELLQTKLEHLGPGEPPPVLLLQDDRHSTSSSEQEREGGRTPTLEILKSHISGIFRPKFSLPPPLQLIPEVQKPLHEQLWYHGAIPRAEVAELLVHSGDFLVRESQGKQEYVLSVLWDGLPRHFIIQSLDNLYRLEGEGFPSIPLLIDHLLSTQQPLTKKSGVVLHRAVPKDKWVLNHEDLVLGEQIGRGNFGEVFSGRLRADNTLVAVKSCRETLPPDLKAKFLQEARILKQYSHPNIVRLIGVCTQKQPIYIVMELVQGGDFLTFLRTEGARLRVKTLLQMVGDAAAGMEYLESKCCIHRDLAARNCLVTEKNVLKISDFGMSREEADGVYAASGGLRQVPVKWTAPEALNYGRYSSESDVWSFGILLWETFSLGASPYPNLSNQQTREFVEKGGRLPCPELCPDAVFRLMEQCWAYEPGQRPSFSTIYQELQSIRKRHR
Chain of MERTK (Q12866 whole entry, looked up): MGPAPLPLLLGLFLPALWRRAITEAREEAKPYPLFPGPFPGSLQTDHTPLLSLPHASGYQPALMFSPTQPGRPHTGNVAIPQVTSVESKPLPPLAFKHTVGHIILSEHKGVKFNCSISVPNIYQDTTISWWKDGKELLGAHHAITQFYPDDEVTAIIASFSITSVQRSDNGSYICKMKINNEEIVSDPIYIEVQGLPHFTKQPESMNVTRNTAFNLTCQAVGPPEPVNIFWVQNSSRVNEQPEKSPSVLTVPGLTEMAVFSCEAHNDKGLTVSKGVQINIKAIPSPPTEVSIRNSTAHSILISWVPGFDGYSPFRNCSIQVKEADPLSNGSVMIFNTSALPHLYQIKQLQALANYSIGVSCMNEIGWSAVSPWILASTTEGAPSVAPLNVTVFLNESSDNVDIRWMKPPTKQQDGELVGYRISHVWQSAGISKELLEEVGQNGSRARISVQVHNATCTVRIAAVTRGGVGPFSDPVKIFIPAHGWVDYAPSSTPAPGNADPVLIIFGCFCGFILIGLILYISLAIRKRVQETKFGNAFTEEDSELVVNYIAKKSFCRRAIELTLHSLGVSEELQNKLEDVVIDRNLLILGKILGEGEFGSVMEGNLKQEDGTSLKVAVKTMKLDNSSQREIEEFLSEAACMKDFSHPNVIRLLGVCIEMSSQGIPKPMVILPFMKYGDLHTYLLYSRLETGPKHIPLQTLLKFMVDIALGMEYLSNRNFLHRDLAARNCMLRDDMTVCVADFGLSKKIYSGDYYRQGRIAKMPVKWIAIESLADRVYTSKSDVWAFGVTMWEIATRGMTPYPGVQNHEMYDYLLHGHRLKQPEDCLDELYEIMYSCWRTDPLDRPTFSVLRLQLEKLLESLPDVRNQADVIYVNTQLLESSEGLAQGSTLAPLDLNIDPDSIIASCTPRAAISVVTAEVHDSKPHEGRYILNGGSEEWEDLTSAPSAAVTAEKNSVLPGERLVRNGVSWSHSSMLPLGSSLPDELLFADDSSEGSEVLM
Chain of EPHB2 (P29323 whole entry, looked up): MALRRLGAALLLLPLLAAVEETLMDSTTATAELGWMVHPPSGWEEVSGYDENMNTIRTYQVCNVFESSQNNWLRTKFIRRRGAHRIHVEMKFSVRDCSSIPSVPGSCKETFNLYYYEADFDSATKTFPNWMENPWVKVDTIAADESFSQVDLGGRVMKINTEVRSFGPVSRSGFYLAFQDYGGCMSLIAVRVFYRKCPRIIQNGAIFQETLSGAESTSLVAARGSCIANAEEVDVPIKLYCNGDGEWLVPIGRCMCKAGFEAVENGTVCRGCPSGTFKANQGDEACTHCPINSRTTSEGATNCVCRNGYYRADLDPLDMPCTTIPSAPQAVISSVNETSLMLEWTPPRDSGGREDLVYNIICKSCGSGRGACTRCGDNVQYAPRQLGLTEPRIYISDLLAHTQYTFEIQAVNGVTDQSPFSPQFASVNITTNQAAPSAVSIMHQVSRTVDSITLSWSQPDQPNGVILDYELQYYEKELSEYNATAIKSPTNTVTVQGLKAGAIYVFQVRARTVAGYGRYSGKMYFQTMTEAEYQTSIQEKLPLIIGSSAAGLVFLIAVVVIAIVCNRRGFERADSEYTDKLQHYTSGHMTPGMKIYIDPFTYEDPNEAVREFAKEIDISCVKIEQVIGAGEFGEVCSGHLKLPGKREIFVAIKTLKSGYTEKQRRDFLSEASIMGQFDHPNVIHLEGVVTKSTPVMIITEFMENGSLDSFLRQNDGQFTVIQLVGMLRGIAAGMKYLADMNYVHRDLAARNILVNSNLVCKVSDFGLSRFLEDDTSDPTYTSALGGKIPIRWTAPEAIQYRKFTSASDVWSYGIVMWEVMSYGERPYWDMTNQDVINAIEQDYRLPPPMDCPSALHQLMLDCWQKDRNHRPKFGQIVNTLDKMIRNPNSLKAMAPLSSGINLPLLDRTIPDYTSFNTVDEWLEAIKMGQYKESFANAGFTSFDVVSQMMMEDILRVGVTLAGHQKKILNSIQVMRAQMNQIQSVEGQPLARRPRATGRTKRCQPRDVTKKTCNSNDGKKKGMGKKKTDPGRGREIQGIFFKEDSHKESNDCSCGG

| SH2 binding enrichment (SHP2-C SH2) | SH2 binding enrichment (c-Src SH2) | SH2 binding enrichment (Grb2 SH2) | Sequence | phosphorylation enrichment (Fyn) | phosphorylation enrichment (Jak2) | phosphorylation enrichment (FGFR1) | phosphorylation enrichment (Fer (mouse)) | phosphorylation enrichment (c-Abl (mouse)) | phosphorylation enrichment (Hck) | phosphorylation enrichment (AncSZ) | phosphorylation enrichment (FGFR3) | phosphorylation enrichment (EPHB2) | phosphorylation enrichment (c-Src) | phosphorylation enrichment (MERTK) | phosphorylation enrichment (Fes) | phosphorylation enrichment (EPHB1) |
| --- | --- | --- | --- | --- | --- | --- | --- | --- | --- | --- | --- | --- | --- | --- | --- | --- |
| 1.43 | 1.52 | 2.19 | CITIHYNFMCN [TP53_Y234_T230I_YF] | 0.46 | 1.31 | 0.582 | 0.574 | 0.661 | 0.489 | 0.946 | 0.886 | 0.711 | 0.607 | 0.456 | 1.44 | 0.59 |
| 1.11 | 2.27 | 18.2 | CLGNQYVNVMN [SLC3A1_Y461_R456C] | 0.403 | 1 | 0.567 | 0.475 | 0.689 | 0.448 | 1.11 | 0.955 | 0.608 | 0.437 | 0.336 | 1.05 | 0.588 |
| 1.47 | 2.14 | 1.64 | CTTFHYNFMCN [TP53_Y234_I232F_YF] | 0.501 | 0.866 | 0.579 | 0.581 | 0.641 | 0.479 | 0.923 | 0.672 | 0.57 | 0.595 | 0.4 | 1.1 | 0.468 |
| 1.39 | 1.02 | 1.1 | CTTIHSNYMCN [TP53_Y234_Y234S] | 0.478 | 0.608 | 0.483 | 0.44 | 0.576 | 0.448 | 0.853 | 0.588 | 0.563 | 0.387 | 0.479 | 0.915 | 0.542 |
| 0.818 | 1.89 | 2.45 | CTTIHYNNMCN [TP53_Y234_Y236N] | 0.486 | 0.551 | 0.423 | 0.404 | 0.528 | 0.532 | 0.734 | 0.538 | 0.479 | 0.416 | 0.367 | 0.943 | 0.455 |
| 2.32 | 8.55 | 1.16 | CTTIHYNYMCD [TP53_Y234_N239D] | 0.405 | 0.625 | 0.57 | 0.465 | 0.545 | 0.469 | 0.796 | 0.631 | 0.515 | 0.422 | 0.426 | 0.898 | 0.647 |
| 2.53 | 2.6 | 1.87 | CTTIHYNYMCI [TP53_Y234_N239I] | 0.487 | 0.859 | 2.52 | 1.05 | 0.509 | 0.494 | 0.946 | 1.55 | 2.4 | 0.462 | 1.41 | 1 | 5.99 |
| 0.887 | 1.1 | 0.843 | CTTIHYNYMYN [TP53_Y234_C238Y] | 0.507 | 0.91 | 0.877 | 1.21 | 0.684 | 0.563 | 1.12 | 0.844 | 0.69 | 0.543 | 1 | 1.22 | 0.945 |
| 0.767 | 0.598 | 1.01 | DASENYFVMDS [TMEM240_Y77_T80M] | 0.392 | 0.952 | 8.76 | 0.732 | 0.677 | 0.457 | 1.91 | 7.01 | 4.43 | 0.569 | 1.92 | 1.1 | 6.62 |
| 0.82 | 0.406 | 0.717 | DAVAVYHGKIS [SH2D1A_Y7] | 0.442 | 0.603 | 0.388 | 0.379 | 0.51 | 0.533 | 0.593 | 0.492 | 0.442 | 0.348 | 0.369 | 0.744 | 0.395 |
| 0.542 | 0.547 | 0.834 | DDDPEYRKFLE [UPF3B_Y160] | 0.617 | 1.06 | 0.669 | 0.478 | 0.577 | 0.597 | 1.32 | 0.799 | 0.7 | 0.483 | 0.566 | 1.22 | 0.612 |
| 0.683 | 0.513 | 0.678 | DGQSVYKLTDF [TBK1_Y153] | 2.52 | 0.765 | 0.434 | 0.775 | 0.444 | 0.751 | 0.725 | 0.474 | 0.37 | 3.06 | 0.471 | 0.775 | 0.426 |
| 0.632 | 0.489 | 0.936 | DGTIVCTGLET [USH2A_Y4487_Y4487C] | 0.454 | 1.06 | 0.509 | 0.582 | 0.837 | 0.438 | 0.955 | 0.636 | 0.558 | 0.499 | 0.47 | 1.12 | 0.533 |

More lines, now with the values behind:

| Sequence | SH2 binding enrichment (SHP2-C SH2) | SH2 binding enrichment (c-Src SH2) | SH2 binding enrichment (Grb2 SH2) | phosphorylation enrichment (Fyn) | phosphorylation enrichment (Jak2) | phosphorylation enrichment (FGFR1) | phosphorylation enrichment (Fer (mouse)) | phosphorylation enrichment (c-Abl (mouse)) | phosphorylation enrichment (Hck) | phosphorylation enrichment (AncSZ) | phosphorylation enrichment (FGFR3) | phosphorylation enrichment (EPHB2) | phosphorylation enrichment (c-Src) | phosphorylation enrichment (MERTK) | phosphorylation enrichment (Fes) | phosphorylation enrichment (EPHB1) |
| --- | --- | --- | --- | --- | --- | --- | --- | --- | --- | --- | --- | --- | --- | --- | --- | --- |
| ASMAKYFASGI [ACADSB_Y372_E376G_YF] | 0.86 | 0.445 | 1.01 | 0.386 | 0.566 | 0.424 | 0.374 | 0.574 | 0.404 | 0.544 | 0.441 | 0.517 | 0.386 | 0.407 | 0.79 | 0.339 |
| ASMAKYYASGI [ACADSB_Y372_E376G] | 0.595 | 0.466 | 0.739 | 0.451 | 0.604 | 0.36 | 0.473 | 0.851 | 0.434 | 0.71 | 0.568 | 0.556 | 0.444 | 0.518 | 0.653 | 0.327 |
| ATHSGYRLNDY [CLDN14_Y233] | 0.623 | 0.49 | 0.709 | 0.389 | 0.706 | 0.503 | 0.395 | 0.556 | 0.397 | 0.568 | 0.491 | 0.491 | 0.493 | 0.393 | 0.739 | 0.518 |
| AVISVYDLVAF [PSEN1_Y256_V261F] | 0.837 | 0.796 | 0.912 | 8.21 | 1.08 | 0.72 | 16 | 0.887 | 7.4 | 1.37 | 0.893 | 9.61 | 5.87 | 8.85 | 2.23 | 9.68 |
| AVLSLYASGCT [ACTA2_Y145_R149C] | 0.547 | 0.379 | 0.861 | 0.538 | 1.2 | 0.512 | 0.576 | 0.965 | 0.634 | 1.2 | 0.811 | 0.658 | 0.46 | 0.432 | 1.39 | 0.825 |
| CASQLYPRHKH [DCTN4_Y263] | 0.865 | 0.916 | 0.975 | 0.38 | 1.02 | 0.533 | 0.44 | 0.807 | 0.483 | 0.673 | 0.639 | 0.464 | 0.405 | 0.428 | 0.928 | 0.43 |
| CETMEYLESKQ [BTK_Y511_A508T] | 0.555 | 0.427 | 0.63 | 0.578 | 1.43 | 0.688 | 0.705 | 0.98 | 0.677 | 1.6 | 0.966 | 0.734 | 0.531 | 0.527 | 1.56 | 0.737 |
| CHKRTYKVTGL | 0.898 | 1.07 | 1.13 | 0.417 | 0.657 | 0.362 | 0.398 | 0.564 | 0.401 | 0.587 | 0.465 | 0.357 | 0.455 | 0.375 | 0.667 | 0.405 |
| CNPLRYPTIMI [OR6K6_Y160] | 0.829 | 0.458 | 0.822 | 0.524 | 0.871 | 0.584 | 0.419 | 0.737 | 0.5 | 0.946 | 0.84 | 0.758 | 0.464 | 0.482 | 0.962 | 0.49 |
| CNRADYSKLAP [GNE_Y22] | 0.622 | 1.18 | 0.793 | 0.458 | 0.621 | 0.472 | 0.485 | 0.556 | 0.459 | 0.749 | 0.61 | 0.607 | 0.412 | 0.609 | 0.844 | 0.613 |
| CNSFQYGGGGG [NPPA_Y151_R150Q] | 0.806 | 0.531 | 0.845 | 0.436 | 0.716 | 0.409 | 0.512 | 0.731 | 0.497 | 0.794 | 0.549 | 0.452 | 0.532 | 0.447 | 0.919 | 0.501 |
| CSSPTYRDCLQ [LARGE2_Y682_R677C] | 1.15 | 1 | 0.94 | 0.402 | 0.846 | 0.49 | 0.408 | 0.503 | 0.473 | 0.812 | 0.738 | 0.436 | 0.484 | 0.37 | 0.892 | 0.5 |
| CTHDLYMFMRE [FGFR3_Y724_I726F] | 0.636 | 0.436 | 0.71 | 0.584 | 1.34 | 1.76 | 0.994 | 0.992 | 1.06 | 1.43 | 1.45 | 1.04 | 2.37 | 1.9 | 1.56 | 2.23 |
| CTNPRYLAAGS [RABL3_Y185] | 0.609 | 0.444 | 0.767 | 0.426 | 0.915 | 0.507 | 0.629 | 0.787 | 0.357 | 0.794 | 0.646 | 0.486 | 0.467 | 0.415 | 0.767 | 0.496 |
| DCLASYLDKVR [KRT10_Y160_R156C] | 0.711 | 0.55 | 0.932 | 0.422 | 0.842 | 0.56 | 0.402 | 0.706 | 0.452 | 0.886 | 0.659 | 0.659 | 0.419 | 0.4 | 0.953 | 0.55 |
| DDFNLYINVKL [MTHFD1_Y52_S49F] | 0.732 | 0.458 | 0.794 | 0.46 | 1.67 | 0.511 | 0.38 | 0.984 | 0.558 | 1.47 | 0.997 | 0.563 | 0.472 | 0.483 | 1.67 | 0.86 |
| DDLTDYLMKIL [ACTA1_Y190_R185D] | 1.26 | 0.689 | 0.962 | 0.444 | 1.15 | 0.516 | 0.457 | 0.758 | 0.519 | 1.22 | 0.669 | 0.553 | 0.548 | 0.529 | 1.1 | 0.476 |
| DDPRRYQKYGY [OAS1_Y362] | 1.3 | 0.894 | 1.05 | 0.426 | 0.507 | 0.414 | 0.403 | 0.592 | 0.499 | 0.598 | 0.446 | 0.544 | 0.438 | 0.368 | 0.591 | 0.368 |
| DDPRTYQKFGF [OAS1_Y362_R361T_YF] | 0.531 | 0.523 | 0.78 | 0.717 | 0.773 | 0.473 | 0.423 | 0.607 | 0.526 | 0.825 | 0.544 | 0.469 | 0.693 | 0.439 | 0.928 | 0.519 |
| DGYTDYAEFAK [MCFD2_Y138_I136T] | 0.592 | 1.22 | 0.651 | 0.96 | 0.765 | 0.754 | 0.4 | 0.734 | 0.74 | 1.03 | 0.699 | 0.706 | 0.942 | 0.463 | 0.844 | 0.829 |
